Reference: paper PMC3288176 (ACS Chemical Biology, 2011)

Target: the molecule itself
Test: SEC

B1: EcPAPR4cys (enzyme, Escherichia coli)
chain: MSKLDLNALNELPKVDRILALAETNAELEKLDAEGRVAWALDNLPGEYVLSSSFGIQAAVSLHLVNQIRPDIPVILTDTGYLFPETYRFIDELTDKLKLNLKVYRATESAAWQEARYGKLWEQGVEGIEKCCDINKVEPMNRALKELNAQTWFAGLRREQSGSRANLPVLAIQRGVFKVLPIIDWDNRTIYQYLQKHGLKYHPLWDEGYLSVGCTHCTRKWEPGMAEEETRFFGLKRECGLHEG
Which “stoichiometry N” value does the source give for B1 here?
Its value is 2.
